# Results reported in patent US12139520B2 (priority 2020, dated 2024).
# Numbered stars: 1 amine (or outer) side, 2 acyl side, 3 side chain; on linkers, the order of the positions; unused ones are H or OH. Bridge positions count the residues as written; N and C are the ends. Square brackets hold non-standard residues; d marks the D form. Side chains are listed from the residue outwards. Ends that are not written are not given here. * marks the point of attachment. C20 diacid = O=C(O)CCCCCCCCCCCCCCCCCCC(=O)*; γGlu = O=C(O)[C@H](CCC(=O)[*:2])N[*:1]; Hyp = O=C(O)[C@@H]1C[C@@H](O)CN1; NMeI = CC[C@H](C)[C@H](NC)C(=O)O; AEEA = NCCOCCOCC(=O)O; Sar = CNCC(=O)O
# T1: hAMY3R (human, UniProt P30988)
# T1 sequence 1: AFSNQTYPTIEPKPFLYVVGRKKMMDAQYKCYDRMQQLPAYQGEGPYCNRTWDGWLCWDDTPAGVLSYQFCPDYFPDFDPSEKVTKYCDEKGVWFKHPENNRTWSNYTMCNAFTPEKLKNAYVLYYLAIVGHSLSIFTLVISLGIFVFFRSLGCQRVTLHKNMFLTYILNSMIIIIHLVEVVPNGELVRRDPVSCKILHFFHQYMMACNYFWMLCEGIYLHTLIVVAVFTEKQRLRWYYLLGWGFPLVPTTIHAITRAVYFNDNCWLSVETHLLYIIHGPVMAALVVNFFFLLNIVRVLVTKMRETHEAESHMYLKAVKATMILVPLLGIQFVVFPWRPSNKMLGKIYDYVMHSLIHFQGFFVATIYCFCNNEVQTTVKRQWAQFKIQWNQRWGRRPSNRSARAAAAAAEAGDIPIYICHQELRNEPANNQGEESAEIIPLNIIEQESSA
# T1 sequence 2: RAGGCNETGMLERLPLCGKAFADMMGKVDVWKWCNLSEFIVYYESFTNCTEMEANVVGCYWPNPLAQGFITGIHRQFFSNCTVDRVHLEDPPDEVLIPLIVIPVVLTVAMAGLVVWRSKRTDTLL
# Legend:
# hAM1R = hAM1R (human, UniProt Q16602); assay: cell-based or functional assay
# hAMY3R = target: T1, hAMY3R; assay: cell-based or functional assay
hAM1R EC50 (cAMP) (hAM1R) [nM],hAMY3R EC50 (cAMP) (hAMY3R) [nM],Binder
815,0.015,{C20 diacid-γGlu}-KCNTATCTVQRLAHQIYQFADKDKDNVAPPTNVGSNG[Hyp]-NH2 (disulfide 2-7 (inferred); not fully specified; ends not checked) [SEQ ID NO: 83]
44.3,0.015,{C20 diacid-γGlu}-RCQTATCATERLAHFLQRSSF[Sar]A[NMeI]LSSTEVGSNT[Hyp]-NH2 (disulfide 2-7 (inferred); not fully specified; ends not checked) [SEQ ID NO: 80]
840,0.016,{C20 diacid-γGlu}-KCNTATCTVQRLAHQIYQFTDKNKDNVAPPTNVGSNG[Hyp]-NH2 (disulfide 2-7 (inferred); not fully specified; ends not checked) [SEQ ID NO: 91]
> 5000,0.015,{C20 diacid-γGlu}-KCNTATCTVQRLAHQIAQFTDKNKDNVAPPTNVGSNG[Hyp]-NH2 (disulfide 2-7 (inferred); not fully specified; ends not checked) [SEQ ID NO: 87]
> 5000,0.014,{C20 diacid-γGlu}-KCNTATCTVQRLAHQIAQFSDKDKDNVAPPTNVGSNG[Hyp]-NH2 (disulfide 2-7 (inferred); not fully specified; ends not checked) [SEQ ID NO: 79]
933,0.016,{C20 diacid-γGlu}-KCNTATCTVQRLAHQIAQFTDKDKDPVAPPTNVGSNG[Hyp]-NH2 (disulfide 2-7 (inferred); not fully specified; ends not checked) [SEQ ID NO: 92]
> 5000,0.014,{C20 diacid-γGlu}-KCNTATCTVQRLAHQIYQFTDKDKDNVAPPTNVGSNG[Hyp]-NH2 (disulfide 2-7 (inferred); not fully specified; ends not checked) [SEQ ID NO: 77]
> 5000,0.015,{C20 diacid-γGlu}-KCNTSTCTVQRLAHQIAQFTDKDKDPVAPPTNVGSNG[Hyp]-NH2 (disulfide 2-7 (inferred); not fully specified; ends not checked) [SEQ ID NO: 88]
> 5000,0.018,{C20 diacid-γGlu}-KCNTATCTVVRLAHQIYQFTDKDKDNVAPPTNVGSNG[Hyp]-NH2 (disulfide 2-7 (inferred); ends not checked) [SEQ ID NO: 103]
> 5000,0.016,{C20 diacid-γGlu}-KCNTATCTVQRLAHQIAQFTNKDKDNVAPPTNVGSNG[Hyp]-NH2 (disulfide 2-7 (inferred); not fully specified; ends not checked) [SEQ ID NO: 95]
58.5,0.016,GCRFGTCTVQRLAHQIYQFTDKDKDNVAPRTNVGPNG[Hyp]-NH2 (disulfide 2-7 (inferred); ends not checked) [SEQ ID NO: 90]
612,0.015,{C20 diacid-γGlu}-KCNTATCTVQRLAHQIYQFTNKDKDNVAPPTNVGSNG[Hyp]-NH2 (disulfide 2-7 (inferred); not fully specified; ends not checked) [SEQ ID NO: 82]
> 5000,0.006,RCNASTCTVNRLADQITQFSNKDKAQVSPPTEVGPNS[Hyp]-NH2 (disulfide 2-7 (inferred); ends not checked) [SEQ ID NO: 9]
> 5000,0.018,KCNTATCTVQRLAHQIYQFTDKDKDNVAPRTEVGSNGY [SEQ ID NO: 102]
> 5000,0.016,{C20 diacid-γGlu}-KCATATCTVQRLAEQIYQFTDKDKDNVAPPTNVGSNG[Hyp]-NH2 (disulfide 2-7 (inferred); not fully specified; ends not checked) [SEQ ID NO: 97]
> 5000,0.017,{C20 diacid-γGlu}-KCNTATCTVQRLAEQIYQFTDKDKDQVAPPTNVGSNG[Hyp]-NH2 (disulfide 2-7 (inferred); ends not checked) [SEQ ID NO: 100]
> 5000,0.016,{C20 diacid-γGlu}-KCNTATCTVQRLAEQIYQFTDKDKDNVAPPTNVGSNT[Hyp]-NH2 (disulfide 2-7 (inferred); not fully specified; ends not checked) [SEQ ID NO: 96]
> 5000,0.018,{C20 diacid-γGlu}-KCNTATCTVQRLAHQIYQFYDKDKDNVAPPTNVGSNG[Hyp]-NH2 (disulfide 2-7 (inferred); ends not checked) [SEQ ID NO: 104]
> 5000,0.016,KCNTATCATQRLANFLVHSSNNFGAIAPSTKVGSNGY [SEQ ID NO: 93]
364,0.017,{C20 diacid-γGlu}-KCNTATCTVQRLAHQIYQFTDKDKDNVAPRTKVGSNG[Hyp] (disulfide 2-7 (inferred); ends not checked) [SEQ ID NO: 99]
552,0.007,KCNFATCTVQRLAHQIYQFTDKDKDNVAPPTEVGSNG[Hyp]-NH2 (disulfide 2-7 (inferred); ends not checked) [SEQ ID NO: 10]
> 5000,0.017,KCNAATCTVQRLAEQIYQFTDKDKDNVAPPTNVGSNG[Hyp]-NH2 (disulfide 2-7 (inferred); ends not checked) [SEQ ID NO: 101]
> 5000,0.016,{C20 diacid-γGlu}-KCNTATCTVQRLAHQIAQFYDKDKDNVAPPTNVGSNG[Hyp]-NH2 (disulfide 2-7 (inferred); not fully specified; ends not checked) [SEQ ID NO: 94]
> 5000,0.015,{C20 diacid-γGlu}-KCNTATCTVQRLAHQIVQFTDKDKDNVAPPTNVGSNG[Hyp]-NH2 (disulfide 2-7 (inferred); not fully specified; ends not checked) [SEQ ID NO: 85]
2980,0.015,GCRTGTCTVQRLAHQIYQFTDKDKDNVAPRTNVGPNGY [SEQ ID NO: 84]
66.9,0.017,GCRFGTCTVQRLAHQIYQFTDKDKDNVAPRTNVSPNGY [SEQ ID NO: 98]
> 5000,0.015,KCNTATCTVQRLAEQIYQFK([AEEA-AEEA-γGlu-C20 diacid])DKDKDNVAPPTNVGSNG[Hyp]-NH2 (disulfide 2-7 (inferred); not fully specified; ends not checked) [SEQ ID NO: 89]
138,0.015,GCRFGTCTVQRLAHQIYQFTDKDKDNVAPRTNIGPNG[Hyp]-NH2 (disulfide 2-7 (inferred); ends not checked) [SEQ ID NO: 81]
> 5000,0.014,{C20 diacid-γGlu}-KCNTATCTVQRLAEQIAQFTDKDKDNVAPPTNVGSNG[Hyp]-NH2 (disulfide 2-7 (inferred); not fully specified; ends not checked) [SEQ ID NO: 78]
> 5000,0.015,{C20 diacid-γGlu}-KCNTATCTVARLAHQINQFTDKDKDNVAPPTNVGSNG[Hyp]-NH2 (disulfide 2-7 (inferred); not fully specified; ends not checked) [SEQ ID NO: 86]
